# Assay results taken from patent US20060104978.
# T1: endogenous latent PDGF-CC secreted by primary mouse fibroblasts, Q8CI19
# T1 chain: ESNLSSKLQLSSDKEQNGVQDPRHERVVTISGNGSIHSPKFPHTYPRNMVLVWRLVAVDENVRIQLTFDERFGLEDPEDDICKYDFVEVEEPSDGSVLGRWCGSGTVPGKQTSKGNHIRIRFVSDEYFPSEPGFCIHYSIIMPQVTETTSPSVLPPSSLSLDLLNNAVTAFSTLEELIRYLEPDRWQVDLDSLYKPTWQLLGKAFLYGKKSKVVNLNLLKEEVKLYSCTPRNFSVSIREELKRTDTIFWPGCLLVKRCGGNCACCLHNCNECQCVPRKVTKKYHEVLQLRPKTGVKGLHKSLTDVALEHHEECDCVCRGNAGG
# T2: CUBc-myc (CUB domain of PDGF-C, residues 1 to 165, with a human c-myc tag), Q9NRA1
# T2 chain: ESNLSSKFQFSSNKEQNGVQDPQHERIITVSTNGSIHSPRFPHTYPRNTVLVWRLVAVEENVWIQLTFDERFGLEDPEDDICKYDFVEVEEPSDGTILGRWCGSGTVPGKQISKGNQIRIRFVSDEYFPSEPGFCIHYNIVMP
# T3: chimeric PDCUBPC (CUB region of PDGF-D, hinge/core region of PDGF-C), Q9GZP0
# T3 chain: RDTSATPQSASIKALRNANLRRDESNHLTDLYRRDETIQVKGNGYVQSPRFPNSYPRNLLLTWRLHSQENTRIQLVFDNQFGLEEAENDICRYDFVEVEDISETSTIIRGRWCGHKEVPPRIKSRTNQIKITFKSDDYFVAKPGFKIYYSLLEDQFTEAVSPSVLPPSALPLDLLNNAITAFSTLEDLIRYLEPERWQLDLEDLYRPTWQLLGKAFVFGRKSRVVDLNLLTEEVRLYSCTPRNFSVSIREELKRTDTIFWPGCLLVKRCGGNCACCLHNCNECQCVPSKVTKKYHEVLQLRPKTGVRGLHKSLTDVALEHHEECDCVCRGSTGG
# Columns and labels:
# [1] = molecular target: full-length PDGF-C expressed in transfected COS-1 cells (latent PDGF-CC), Q9NRA1
# [2] = molecular target: full-length PDGF-D expressed in transfected COS-1 cells (latent PDGF-DD), Q9GZP0
# [3] = molecular target: T1, endogenous latent PDGF-CC secreted by …
# [4] = molecular target: T2, CUBc-myc (CUB domain of PDGF-C, …)
# [5] = molecular target: PDGF-CC deletion mutant ΔN150, Q9NRA1
# [6] = molecular target: PDGF-CC deletion mutant ΔN170, Q9NRA1
# [7] = molecular target: PDGF-CC deletion mutant ΔN190, Q9NRA1
# [8] = molecular target: PDGF-CC deletion mutant ΔN210, Q9NRA1
# [9] = molecular target: PDGF-CC deletion mutant ΔN230, Q9NRA1
# [10] = molecular target: T3, chimeric PDCUBPC (CUB region of PDGF-D, …)
# [11] = molecular target: cleavage site mutant of mouse PDGF-C (-K-K-S-K- replaced by four alanines), Q8CI19
# [12] = molecular target: recombinant His6-tagged latent (full-length) PDGF-DD, Q9GZP0
# [13] = molecular target: recombinant His6-tagged latent (full-length) human PDGF-CC, Q9NRA1
protein,measurement,setting,value
human neurotrypsin (NT) expressed in transfected COS-1 cells (pSG5) (protein) FDSVLNDSLHHSHRHSPPAGPHYPYYLPTQQRPPRTRPPPPLPRFPRPPRALPAQRPHALQAGHTPRPHPWGCPAGEPWVSVTDFGAPCLRWAEVPPFLERSPPASWAQLRGQRHNFCRSPDGAGRPWCFYGDARGKVDWGYCDCRHGSVRLRGGKNEFEGTVEVYASGVWGTVCSSHWDDSDASVICHQLQLGGKGIAKQTPFSGLGLIPIYWSNVRCRGDEENILLCEKDIWQGGVCPQKMAAAVTCSFSHGPTFPIIRLAGGSSVHEGRVELYHAGQWGTVCDDQWDDADAEVICRQLGLSGIAKAWHQAYFGEGSGPVMLDEVRCTGNELSIEQCPKSSWGEHNCGHKEDAGVSCTPLTDGVIRLAGGKGSHEGRLEVYYRGQWGTVCDDGWTELNTYVVCRQLGFKYGKQASANHFEESTGPIWLDDVSCSGKETRFLQCSRRQWGRHDCSHREDVSIACYPGGEGHRLSLGFPVRLMDGENKKEGRVEVFINGQWGTICDDGWTDKDAAVICRQLGYKGPARARTMAYFGEGKGPIHVDNVKCTGNERSLADCIKQDIGRHNCRHSEDAGVICDYFGKKASGNSNKESLSSVCGLRLLHRRQKRIIGGKNSLRGGWPWQVSLRLKSSHGDGRLLCGATLLSSCWVLTAAHCFKRYGNSTRSYAVRVGDYHTLVPEEFEEEIGVQQIVIHREYRPDRSDYDIALVRLQGPEEQCARFSSHVLPACLPLWRERPQKTASNCYITGWGDTGRAYSRTLQQAAIPLLPKRFCEERYKGRFTGRMLCAGNLHEHKRVDSCQGDSGGPLMCERPGESWVVYGVTSWGYGCGVKDSPGVYTKVSAFVPWIKSVTKL,"proteolytic cleavage in the cotransfection assay (SDS-PAGE, immunoblot)",[1],neurotrypsin (NT) lacked proteolytic activity toward latent PDGF-CC
same,"proteolytic cleavage in the cotransfection assay (SDS-PAGE, immunoblot)",[2],neither of the two enzymes was able to cleave and activate latent PDGF-DD
endogenous tPA of primary mouse fibroblasts (protein) SYRATCRDEPTQTTYQQHQSWLRPMLRSSRVEYCRCNSGLVQCHSVPVRSCSEPRCFNGGTCQQALYFSDFVCQCPDGFVGKRCDIDTRATCFEEQGITYRGTWSTAESGAECINWNSSVLSLKPYNARRPNAIKLGLGNHNYCRNPDRDLKPWCYVFKAGKYTTEFCSTPACPKGKSEDCYVGKGVTYRGTHSLTTSQASCLPWNSIVLMGKSYTAWRTNSQALGLGRHNYCRNPDGDARPWCHVMKDRKLTWEYCDMSPCSTCGLRQYKRPQFRIKGGLYTDITSHPWQAAIFVKNKRSPGERFLCGGVLISSCWVLSAAHCFLERFPPNHLKVVLGRTYRVVPGEEEQTFEIEKYIVHEEFDDDTYDNDIALLQLRSQSKQCAQESSSVGTACLPDPNLQLPDWTECELSGYGKHEASSPFFSDRLKEAHVRLYPSSRCTSQHLFNKTVTNNMLCAGDTRSGGNQDLHDACQGDSGGPLVCMINKQMTLTGIISWGLGCGQKDVPGVYTKVTNYLDWIHDNMKQ,processing of latent PDGF-CC in medium of tPA-deficient against wild-type fibroblasts (immunoblot),[3],the generation of double species migrating as 22-25 kDa was reduced to less than 10%
full-length human tPA expressed in transfected COS-1 cells (pSG5) (protein) SYQVICRDEKTQMIYQQHQSWLRPVLRSNRVEYCWCNSGRAQCHSVPVKSCSEPRCFNGGTCQQALYFSDFVCQCPEGFAGKCCEIDTRATCYEDQGISYRGTWSTAESGAECTNWNSSALAQKPYSGRRPDAIRLGLGNHNYCRNPDRDSKPWCYVFKAGKYSSEFCSTPACSEGNSDCYFGNGSAYRGTHSLTESGASCLPWNSMILIGKVYTAQNPSAQALGLGKHNYCRNPDGDAKPWCHVLKNRRLTWEYCDVPSCSTCGLRQYSQPQFRIKGGLFADIASHPWQAAIFAKHRRSPGERFLCGGILISSCWILSAAHCFQERFPPHHLTVILGRTYRVVPGEEEQKFEVEKYIVHKEFDDDTYDNDIALLQLKSDSSRCAQESSVVRTVCLPPADLQLPDWTECELSGYGKHEALSPFYSERLKEAHVRLYPSSRCTSQHLLNRTVTDNMLCAGDTRSGGPQANLHDACQGDSGGPLVCLNDGRMTLVGIISWGLGCGQKDVPGVYTKVTNYLDWIRDNMRP,cleavage of full-length PDGF-CC by tPA in the cotransfection assay (immunoblot),[4],the CUB domain efficiently competed for the interaction and processing of latent PDGF-CC by tPA
same,proteolytic cleavage in the cotransfection assay (immunoblot),[5],"neither chimeric PDCUBPC, nor the truncation mutants lacking the CUB domain, were efficiently cleaved"
same,proteolytic cleavage in the cotransfection assay (immunoblot),[6],"neither chimeric PDCUBPC, nor the truncation mutants lacking the CUB domain, were efficiently cleaved"
same,proteolytic cleavage in the cotransfection assay (immunoblot),[7],"neither chimeric PDCUBPC, nor the truncation mutants lacking the CUB domain, were efficiently cleaved"
same,proteolytic cleavage in the cotransfection assay (immunoblot),[8],"neither chimeric PDCUBPC, nor the truncation mutants lacking the CUB domain, were efficiently cleaved"
same,proteolytic cleavage in the cotransfection assay (immunoblot),[9],"neither chimeric PDCUBPC, nor the truncation mutants lacking the CUB domain, were efficiently cleaved"
same,proteolytic cleavage in the cotransfection assay (immunoblot),[10],"neither chimeric PDCUBPC, nor the truncation mutants lacking the CUB domain, were efficiently cleaved"
same,proteolytic cleavage in the cotransfection assay (immunoblot),[11],the mutant was resistant to tPA-mediated cleavage
same,"proteolytic cleavage in the cotransfection assay (SDS-PAGE, immunoblot)",[1],"tPA released the growth factor domain of latent PDGFCC, and the fragment migrated as a 22 kDa species under reducing conditions"
same,"proteolytic cleavage in the cotransfection assay (SDS-PAGE, immunoblot)",[2],neither of the two enzymes was able to cleave and activate latent PDGF-DD
"tPA purified from human melanoma cells (T7776, Sigma) (protein) SYQVICRDEKTQMIYQQHQSWLRPVLRSNRVEYCWCNSGRAQCHSVPVKSCSEPRCFNGGTCQQALYFSDFVCQCPEGFAGKCCEIDTRATCYEDQGISYRGTWSTAESGAECTNWNSSALAQKPYSGRRPDAIRLGLGNHNYCRNPDRDSKPWCYVFKAGKYSSEFCSTPACSEGNSDCYFGNGSAYRGTHSLTESGASCLPWNSMILIGKVYTAQNPSAQALGLGKHNYCRNPDGDAKPWCHVLKNRRLTWEYCDVPSCSTCGLRQYSQPQFRIKGGLFADIASHPWQAAIFAKHRRSPGERFLCGGILISSCWILSAAHCFQERFPPHHLTVILGRTYRVVPGEEEQKFEVEKYIVHKEFDDDTYDNDIALLQLKSDSSRCAQESSVVRTVCLPPADLQLPDWTECELSGYGKHEALSPFYSERLKEAHVRLYPSSRCTSQHLLNRTVTDNMLCAGDTRSGGPQANLHDACQGDSGGPLVCLNDGRMTLVGIISWGLGCGQKDVPGVYTKVTNYLDWIRDNMRP","in vitro cleavage with purified tPA (SDS-PAGE, immunoblot)",[12],"PDGF-CC, but not PDGF-DD, is a substrate for tPA"
same,"in vitro cleavage with purified tPA (SDS-PAGE, immunoblot)",[13],"PDGF-CC, but not PDGF-DD, is a substrate for tPA"
